The results in this text go back to the supplement of paper PMC7877785.

± gives the uncertainty stated by the source.

The series is described as follows: self-splicing fitness, log relative to wild type (ln ratio); higher = more splicing; Tetrahymena group I intron in knt gene, E. coli kanamycin selection, DiMSum; sequences stand for … in CUCUCU…GGAGGGAAAAGUUAUCAGGCAUGCACCUGGUAGCUAGUCUUUAAACCAAUAGAUUGCAUCGGUUUAAAAGGCAAGACCGUCAAAUUGCGGGAAAGGGGUCAACAGCCGUUCAGUACCAAGUCUCAGGGGAAACUUUGAGAUGGCCUUGCAAAGGGUAUGGUAAUAAGCUGACGGACAUGGUCCUAACCACGCAGCCAAGUCCUAAGUCAACAGAUCUUCUGUUGAUAUGGAUGCAGUUCACAGACUAAAUGUCGGUCGGGGAAGAUGUAUUCUUCUCAUAAGAUAUAGUCGGACCUCUCCUUAAUGGGAGCUAGCGGAUGAAGUGAUGCAACACUGGAGCCGCUGGGAACUAAUUUGUAUGCGAAAGUAUAUUGAUUAGUUUUGGAGUACUCGUGGUCG
The method in brief:
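Fitness was computed with DiMSum as the error-weighted combination of replicate fold changes, kanamycin versus none, each normalised to wild type. The library randomised all eight intron nucleotides of the P1ex region, with the intron placed in the knt kanamycin-resistance gene on pET-22b(+) in E. coli BL21(DE3). Six replicate transformations were grown overnight at 37°C or 30°C on LB agar with or without 25 μg/mL kanamycin, plus 100 μg/mL carbenicillin, 50 μM IPTG and 0.2% rhamnose. Pooled colonies were amplicon-sequenced on an Illumina HiSeq 2500.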

Regarding CUAAAGCAAUAUUACGCGAU, the “self-splicing fitness (ln)” value is -0.384 ± 0.051 (30 °C) and 0.349 ± 0.062 (37 °C).

As to CUAAAGCAAUAUUACGCGGA, the “self-splicing fitness (ln)” value was -3.85 ± 0.3 (30 °C) and -3.62 ± 0.24 (37 °C).

In the case of CUAAAGCAAUAUUACGCGGU, the “self-splicing fitness (ln)” value is -1.44 ± 0.097 (30 °C) and -1.2 ± 0.094 (37 °C).

In the case of CUAAAGCAAUAUUACGGACA, the “self-splicing fitness (ln)” value runs as follows: (30 °C) -3.1 ± 0.17; (37 °C) -2.34 ± 0.21.

On to CUAAAGCAAUAUUACGGACG, for which the “self-splicing fitness (ln)” value was 0.255 ± 0.084 (30 °C) and -0.189 ± 0.092 (37 °C).

Turning to CUAAAGCAAUAUUACGGCGA, the “self-splicing fitness (ln)” value (30 °C) is -3.59 ± 0.25 and the “self-splicing fitness (ln)” value (37 °C) is -1.96 ± 0.19.

Regarding CUAAAGCAAUAUUACGGCGU, the “self-splicing fitness (ln)” value is, setting by setting: (30 °C) -3.68 ± 0.23; (37 °C) -3.05 ± 0.35.

Regarding CUAAAGCAAUAUUACGGGAU, the “self-splicing fitness (ln)” value is -1.86 ± 0.087 (30 °C) and -0.984 ± 0.12 (37 °C).

As to CUAAAGCAAUAUUACGGGUC, the “self-splicing fitness (ln)” value runs as follows: (30 °C) -3.75 ± 0.21; (37 °C) -3.33 ± 0.37.

On to CUAAAGCAAUAUUACGGUAA, for which the “self-splicing fitness (ln)” value was -3.53 ± 0.15 (30 °C) and -2.36 ± 0.18 (37 °C).

As for CUAAAGCAAUAUUACGGUGA, the “self-splicing fitness (ln)” value by setting is: (30 °C) -4.11 ± 0.2; (37 °C) -1.6 ± 0.14.

For CUAAAGCAAUAUUACGUACG, the “self-splicing fitness (ln)” value by setting is: (30 °C) 0.59 ± 0.095; (37 °C) 0.0866 ± 0.099.

Turning to CUAAAGCAAUAUUACGUAUU, the “self-splicing fitness (ln)” value is -3.61 ± 0.19 (30 °C) and -2.17 ± 0.24 (37 °C).

In the case of CUAAAGCAAUAUUACGUCAU, the “self-splicing fitness (ln)” value is -4.85 ± 0.31 (30 °C) and -2.78 ± 0.23 (37 °C).

Turning to CUAAAGCAAUAUUACGUCCA, the “self-splicing fitness (ln)” value by setting is: (30 °C) -3.01 ± 0.19; (37 °C) -2.79 ± 0.31.

As to CUAAAGCAAUAUUACGUCCG, the “self-splicing fitness (ln)” value runs as follows: (30 °C) 0.264 ± 0.12; (37 °C) 0.68 ± 0.16.

As to CUAAAGCAAUAUUACGUCGU, the “self-splicing fitness (ln)” value by setting is: (30 °C) -4.09 ± 0.2; (37 °C) -2.88 ± 0.22.

With CUAAAGCAAUAUUACGUGAG, the “self-splicing fitness (ln)” value is, setting by setting: (30 °C) -0.0713 ± 0.047; (37 °C) -0.2 ± 0.066.

For the sequence CUAAAGCAAUAUUACGUGAU, the “self-splicing fitness (ln)” value (30 °C) was -1.35 ± 0.07 and the “self-splicing fitness (ln)” value (37 °C) was -1.14 ± 0.11.

On to CUAAAGCAAUAUUACGUGCU, for which the “self-splicing fitness (ln)” value (30 °C) was -2.89 ± 0.14 and the “self-splicing fitness (ln)” value (37 °C) was -2.75 ± 0.25.

Regarding CUAAAGCAAUAUUACGUGGG, the “self-splicing fitness (ln)” value is, setting by setting: (30 °C) -2.9 ± 0.11; (37 °C) -1.09 ± 0.092.

Consider CUAAAGCAAUAUUACGUUCA, for which the “self-splicing fitness (ln)” value (30 °C) was -3.24 ± 0.12 and the “self-splicing fitness (ln)” value (37 °C) is -1.56 ± 0.15.

For the sequence CUAAAGCAAUAUUACGUUCC, the “self-splicing fitness (ln)” value was -3.89 ± 0.4 (30 °C) and -2.25 ± 0.41 (37 °C).

Regarding CUACAGCAAUAUUACGAAAA, the “self-splicing fitness (ln)” value is, setting by setting: (30 °C) -2.2 ± 0.21; (37 °C) -1.92 ± 0.21.

Regarding CUACAGCAAUAUUACGACAG, the “self-splicing fitness (ln)” value reads like this: (30 °C) -0.672 ± 0.088; (37 °C) 0.096 ± 0.11.

Regarding CUACAGCAAUAUUACGACUC, the “self-splicing fitness (ln)” value runs as follows: (30 °C) -4.35 ± 0.22; (37 °C) -2.7 ± 0.24.

Regarding CUACAGCAAUAUUACGAUCC, the “self-splicing fitness (ln)” value is, setting by setting: (30 °C) -4.14 ± 0.36; (37 °C) -1.44 ± 0.26.

As to CUACAGCAAUAUUACGAUCG, the “self-splicing fitness (ln)” value is, setting by setting: (30 °C) -0.0619 ± 0.061; (37 °C) 0.736 ± 0.085.

As to CUACAGCAAUAUUACGCAAA, the “self-splicing fitness (ln)” value (30 °C) was -3.36 ± 0.24 and the “self-splicing fitness (ln)” value (37 °C) was -3.49 ± 0.25.

Turning to CUACAGCAAUAUUACGCAGA, the “self-splicing fitness (ln)” value reads like this: (30 °C) -3.97 ± 0.28; (37 °C) -3.07 ± 0.22.

Consider CUACAGCAAUAUUACGCAUC, for which the “self-splicing fitness (ln)” value is -3.65 ± 0.27 (30 °C) and -1.5 ± 0.16 (37 °C).

For the sequence CUACAGCAAUAUUACGCAUG, the “self-splicing fitness (ln)” value reads like this: (30 °C) -1.48 ± 0.086; (37 °C) -1.44 ± 0.079.

Regarding CUACAGCAAUAUUACGCAUU, where the note is “37 °C”, the “self-splicing fitness (ln)” value was -2.83 ± 0.25.

In the case of CUACAGCAAUAUUACGCCAG, the “self-splicing fitness (ln)” value is -1.3 ± 0.13 (30 °C) and -0.891 ± 0.16 (37 °C).

As for CUACAGCAAUAUUACGGAUA, the “self-splicing fitness (ln)” value was -3.45 ± 0.14 (30 °C) and -3.2 ± 0.16 (37 °C).

As to CUACAGCAAUAUUACGGGCC, the “self-splicing fitness (ln)” value (37 °C) was -3.03 ± 0.47.

Regarding CUACAGCAAUAUUACGGUUC, the “self-splicing fitness (ln)” value (30 °C) was -2.93 ± 0.089 and the “self-splicing fitness (ln)” value (37 °C) was -1.23 ± 0.1.
